# Assay results taken from the nanobody polyreactivity screen of Harvey et al. (2022).
# Test: yeast display, Sf9 membrane polyspecificity reagent, FACS + sequencing; frameworks hold sequencing errors
# How it was run: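 In a synthetic yeast display library (Saccharomyces cerevisiae BJ5465), nanobody expression was induced with galactose for 36–48 hours. FACS gates were set low and high (top ~1%) using anti-HA fluorescence for expression and streptavidin fluorescence for binding of the Sf9 membrane reagent. Each polyreactivity label is drawn from the gate of origin.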
row,Sequence,polyreactivity (PSR sort gate)
1,QVQLVESGGGLVQAGGSLRLSCAASGSIFVKYAMGWYRQAPGKERELVAAISRRGGSTNYADSVKGRFTISRDNAKNTVYLQMNSLKPEDTAVYYCNAQTVTSYGGDSWGQGTQVTVSS,high polyreactivity
2,QVQLVESGGGLVQAGGSLRLSCAASGSIFVLNAMGWYRQAPGKERELLAGITYSGGSTYYADSVKGRFTISRDNAKNTVYLQMNSLKPEDTAVYYCAAPVRRYPYPGRFYYWGQGTQVTVSS,low polyreactivity
3,QVQLVESGGGLVQAGGSLRLSCAASGSIFVLNAMGWYTQAPGKERELVAAINKSGGRTYYADSVKGRFTISRDNAKNTVYLQMNSLKPEDTAVDYCAVDISVTGSSNRYGYWGQGTQVTVSS,high polyreactivity
4,QVQLVESGGGLVQAGGSLRLSCAASGSIFVLYAMGWYRKAPGKERELVAAISRGVGGTNYADSVKGRFTISRDNAKITVYLQMNSLKPEDTAVYYCAAQTLRWSHYYYWGQGTQVTVSS,high polyreactivity
5,QVQLVESGGGLVQAGGSLRLSCAASGSIFVLYAMGWYRQAPGKERELVAAISRGVGGTNYADSVKGRFTISRDNAKNTVYLQMNSLKPEDTAVYYCAAQTLRWSHYYYWGQGTQVTVSS,high polyreactivity
6,QVQLVESGGGLVQAGGSLRLSCAASGSIFVNNAMGWYRQAPGKERELVAAITCSTGSTYYADSVKGRFTISRDNAKNTVYLQMNSLKPEDTAVYYCAATSYTATWRYYYWGQGTQVTVSS,high polyreactivity
7,QVQLVESGGGLVQAGGSLRLSCAASGSIFVNNAMVWYRQAPGKERELVAAISSRGGSTYYADSVKGRFTISRDNAKNTVYLQMNSLKPEDTAVYYCAAAGYGKVRGDYWGQGTQVTVSS,low polyreactivity
8,QVQLVESGGGLVQAGGSLRLSCAASGSIFVNYAKGWYRQAPGKERELVAAITRSGGRTYYADSVKGRFTISRDNAKNTVYLQMNSLKPEDTAVYYCNKRRYPYGWGQGTQVNVSS,high polyreactivity
9,QVQLVESGGGLVQAGGSLRLSCAASGSIFVNYAMGWYRQAPGKERELVAAITLRGGSTFYADSVKGRFTISRDNAKNTVYLQMNSLKPEDTAVYYCAASSLRYRAYKSLFDYWGQGTQVTVSS,low polyreactivity
10,QVQLVESGGGLVQAGGSLRLSCAASGSIFVPYAMGWYRQAPGKERELVAAISSRGGRTYYADSVKGRFTISRDNPKNTVYLQMNSLKPEDTAVYYCNKTAGSHIPRLEYWGQGTQVTVSS,low polyreactivity
11,QVQLVESGGGLVQAGGSLRLSCAASGSIFVPYAMGWYRQAPGKERELVAAISSSTASTYYADSVKGRFTISRDNAKNTVYLQMNSLKPEDTAVYYCNAEQWDYGVRVAHYDYWGQGTQVTVSS,low polyreactivity
12,QVQLVESGGGLVQAGGSLRLSCAASGSIFVQYDMGWYRQAPGKERELVAAITSGSSTNYADSVKGRFTISRDNAKNTVYLQMNSLKPEDTAVYYCAASTPYSYRYDYWGQGTQVTVSS,low polyreactivity
13,QVQLVESGGGLVQAGGSLRLSCAASGSIFVRNALGWYRQAPGKEREFVAIRFSGATTYYADSVKGRFTISRDNAKNTVYLQMNSLKPEDTAVYYCAAVARTYGRTSYYWGQGTQVTVSS,high polyreactivity
14,QVQLVESGGGLVQAGGSLRLSCAASGSIFVRNAMGWYRQAPGKERELVAAITYRGGSTYYADSVKGRFTISRDNAKNTVYFQMNSLKPEDTAVYYCFDVNTDVLSRVYRGWGYYYWGQGTQVTVSS,low polyreactivity
15,QVQLVESGGGLVQAGGSLRLSCAASGSIFVRYAKGWYRQAPGKERELVAAIDIGGGTYYADSVKGRFTISRDNAKNTVYLQMNSLKPEDTAVYYCAADGFTEYIYLPYDYWGQGTQVTVSS,high polyreactivity
16,QVQLVESGGGLVQAGGSLRLSCAASGSIFVSNAMGWSRQAPGKERELVAAITRSGGSTYYADSVKGRFTISRDNAKNTVYLQMNCLKPEDTAVYYCAAATYRYGYGYWGQGTQVTVSS,high polyreactivity
17,QVQLVESGGGLVQAGGSLRLSCAASGSIFVSNAMGWYRQAPGKEREFDAGITRRGGRTYYADSVKGRFTISRDNAKNTVYLQMNSLKPEDTPVYYCAAKSTTSRFDYWGQGTQVTVSS,high polyreactivity
18,QVQLVESGGGLVQAGGSLRLSCAASGSIFVSYAMGWYRQAPGKERELVAAISISDGSTYADSVKGRFTISRDNAKNTVYLQMNSLKPEDTAVYYCATYLVYDYAYVAYDYWGQGTQVTVSS,low polyreactivity
19,QVQLVESGGGLVQAGGSLRLSCAASGSIFVSYAMGWYRQAPGKERELVAAISSSGTRTYYADSVKGRFTISRDNAKNTVYLQMNSLKPEDTAVYYCAKDSYHTVWGGYWGQGTQVTVSS,high polyreactivity
20,QVQLVESGGGLVQAGGSLRLSCAASGSIFVSYAMGWYRQAPGKERELVAAITSIGTRTNYADSVKGRFTISRDNAKNTVYLPMNSLKPEDTAVYYCNAPRFWSRHGLRDYWGQGTQVTVSS,high polyreactivity
21,QVQLVESGGGLVQAGGSLRLSCAASGSIFVSYAMGWYRQAPGKERELVAVISYSGVSTYYADSVKGRFTISRDNAKNTVYLQMNSLKPEDTAVYYCATRQYGTRHILKYNYWGQGTQVTVSS,low polyreactivity
22,QVQLVESGGGLVQAGGSLRLSCAASGSIFVSYAMGWYRQAPGNDRELVAAISGGGVSTYYADSVKGRFSISRDNAKNTVYLQMNSLKPEDTAVYYCATPYVQTGSGYTGDYWGQGTQVTVSS,high polyreactivity

row,Sequence,polyreactivity (PSR sort gate)
1,QVQLVESGGGLVQAGGSLRLSCAASGSIFVSYGMGWYRPAPGKERELVAAISGGGVSTYYADSVKGRFTISRDNAKNTVYLQMNSLIPEDTAVYYCAAEVSFGWGNYGYDYWGQGTQVTVSS,high polyreactivity
2,QVQLVESGGGLVQAGGSLRLSCAASGSIFVTYAMGWYRQAPGKERELVAAINYSGGSTYYADSVKGRFTISRDNAKNTVYLQMNSLKPEDTAVYYCAADERVDQGWIRMDYWGQGTQVTVSS,low polyreactivity
3,QVQLVESGGGLVQAGGSLRLSCAASGSIFVTYAMGWYRQAPGKERELVAAITWNGGSTYYADSVKGRFTISRDNAKNTVYLQMNSLKPEDTAVYYCAADSRYRGNYWGQGTQVTVSS,high polyreactivity
4,QVQLVESGGGLVQAGGSLRLSCAASGSIFVTYAMGWYRQAPGKERELVATITSSGGSTYYADSVKGRFTISRDNAKNTVYLQMNSLKPEDTAVYYCATDFGASVWDYFRRVYYWFGYWGQGTQVTVSS,low polyreactivity
5,QVQLVESGGGLVQAGGSLRLSCAASGSIFVVNAMGWYRQAPGKERELGASISQSGDNTYYADSVKGRFTISRDNAKNTVYLQMISLKTEDTAVYYCNAYGGYPEVDYWGQGTQVTVSS,low polyreactivity
6,QVQLVESGGGLVQAGGSLRLSCAASGSIFVVNTLGWYRQAPGKEREFVAPISYNGGRTSYADSVKGRFTISRDNAKNTVYLQMNSLKPEDTEVYYCAAGGSVPRAYHISYFTQYDYWGQGTQVTVSS,low polyreactivity
7,QVQLVESGGGLVQAGGSLRLSCAASGSIFVWYDMGWYRQAPGKERELVATFSLSGVSTYYADSVKGRFTISRDNAKNTVYLQMNSLKPEDSAVYYCAADFVEQGEDDYWGQGTQVTVSS,low polyreactivity
8,QVQLVESGGGLVQAGGSLRLSCAASGSIFVWYVMGWYRQAPGKERELVAAITWSAARTYDADSVKGRFTISRDNAKNTVYLQMNSLKPADTAVYYCAADHVSYQPSSRIFDYWGQGTQVTVSS,low polyreactivity
9,QVQLVESGGGLVQAGGSLRLSCAASGSIFVYNAMGWYRQAPGKEREMVARITYIGTSTYYADSVKGRFTISRDNAKNSVYLQMNSLKPEDTGVYYCNARRRHEGSPPYGYWGQGTQVTVSS,high polyreactivity
10,QVQLVESGGGLVQAGGSLRLSCAASGSIFVYNDKGWYRQAPGKERELVADISSGGTTDYADSVKGRFTISRDNAKNTVYLQMNSLKPEDTAVYYCAAESYIEYYLKYDYWGQGTQVTVSS,low polyreactivity
11,QVQLVESGGGLVQAGGSLRLSCAASGSIFVYNDMGWYRQAPGKERELVAGIDWSGDRTYADSVKGRFTSSRDNAKNTVYLHMNSLKPEDTAVYYCNADEWRWDEIIPYAVDYWGQGTQVTVSS,low polyreactivity
12,QVQLVESGGGLVQAGGSLRLSCAASGSIFVYNPMGSYREPPGKERELVAAISQRGGSTYYADSVKGRFTISRDNANNTVYLQMYSLKPEDTAVYYCAAGPGDSGDDYWGQGTQVTVSS,low polyreactivity
13,QVQLVESGGGLVQAGGSLRLSCAASGSIFVYYAMGWYRQAPGKERELVAAISSRGGSTYYADSVKGRFTISRDNAKNTVYLQMNSLKPEDTAVYYCAAYTLDGVNGRVLDDYWGQGTQVTVSS,low polyreactivity
14,QVQLVESGGGLVQAGGSLRLSCAASGSIFVYYTMGWYRQAPGKESELVAAISISGTSTYYADSVKGRFTISRDNAKYTVYLQLNSLKPEDTAVYYCAADTFYGEDYWGQGTQVTVSS,low polyreactivity
15,QVQLVESGGGLVQAGGSLRLSCAASGSIFVYYTMGWYRQSPGKEREMVAAITYSGGSKYYADSVKGRFTISRDNAKNTVYLQMNRLKPEDTAVYYCNAKSAAHRYVRRHDYWGQGTQVTVSW,low polyreactivity
16,QVQLVESGGGLVQAGGSLRLSCAASGSIFWAYTMGWYRQAPGKERELVAAISASGGSTYYADSVKGRFTISRDNAKNTFYLQMNSLKPEDTAVYYCNKDYHRPYGGGSKGDYWGQGTQVTVSS,low polyreactivity
17,QVQLVESGGGLVQAGGSLRLSCAASGSIFWFNAMGWYRQAPGKERELVAAIRRIGGSTYYADSVKGRFTISRDNAKNTVYLQMNSLKPEDTAVYYCAAGVTFRGASYGYWGQGTQVTVSS,high polyreactivity
18,QVQLVESGGGLVQAGGSLRLSCAASGSIFWFYAMGWYRQAPGKERELVAAISYSGGITYYADSVKGRFTISRDNAKNTVYLQMNSLKPEDTAVYYCNADGPSTPWVDYGYWGQGTQVTVSS,low polyreactivity
19,QVQLVESGGGLVQAGGSLRLSCAASGSIFWGNAMGWYRPAPGKERELVASISDSGGSTYADSVKGRFTISRDNAKNTVYLQMNSLKPEDTAVYYCAADDWYSAGIRNWYYGGYDYWGQGTQVTVSS,low polyreactivity
20,QVQLVESGGGLVQAGGSLRLSCAASGSIFWGNAMGWYRQAPGKEREMVAAITWSGGSTYYADSVKGRFTISRDNAKNTVYLQMNSLKPEDTAVYYCYAVYIGSRRRYEYDYWGQGTQVTVSS,high polyreactivity
21,QVQLVESGGGLVQAGGSLRLSCAASGSIFWGYAMGWYRPAPGKERELVATIRNRGGSTYYADSVKGRFTISRDNAKNTVYLQMNSLKPEDTAVYYCAAVSYRQYYGWGNYWGQGTQVTVSS,low polyreactivity
